# B1: Guanyl-specific ribonuclease T1, P00651 (parent)
# chain: MMYSKLLTLTTLLLPTALALPSLVERACDYTCGSNCYSSSDVSTAQAAGYQLHEDGETVGSNSYPHKYNNYEGFDFSVSSPYYEWPILSSGDVYSGGSPGADRVVFNENNQLAGVITHTGASGNNFVECT
# Variants of: B1
# Conditions: Aspergillus oryzae (strain ATCC 42149 / RIB 40); pH 5; 10 °C; GdnHCl; Fluorescence; Sodium acetate 0.1 M; reversible: yes; structure 1RN1; whole UniProt chain shown
Variant,ddG of mutation (higher = less stable) [kcal/mol],denaturant m value [kcal/mol/M],denaturant midpoint (higher = more stable) [M]
MMYSKLLTLTTLLLPTALALPSLVERACDYTCGSNCYSSSDVSTAQAAGYQLHEDGETVGSNSYPHKYNNYEGFDFSVSSPYYEWPILSSGDVYSGGSVGADRVVFNENNQLAGVITHTGASGNNFVECT [P99V],-1.53,3.01,3.43

# Same assay, conditions: Aspergillus oryzae (strain ATCC 42149 / RIB 40); pH 8; 10 °C; GdnHCl; Fluorescence; PIPES 0.1 M; reversible: yes; structure 1RN1; whole UniProt chain shown
Variant,ddG of mutation (higher = less stable) [kcal/mol],denaturant m value [kcal/mol/M],denaturant midpoint (higher = more stable) [M]
MMYSKLLTLTTLLLPTALALPSLVERACDYTCGSNCYSSSDVSTAQAAGYQLHEDGETVGSNSYPHKYNNYEGFDFSVSSPYYEWPILSSGDVYSGGSVGADRVVFNENNQLAGVITHTGASGNNFVECT [P99V],-2.44,3.18,2.44

# Same assay, conditions: Aspergillus oryzae (strain ATCC 42149 / RIB 40); pH 8; 25 °C; GdnHCl; Fluorescence; PIPES 0.1 M; reversible: yes; structure 1RN1; whole UniProt chain shown
Variant,ddG of mutation (higher = less stable) [kcal/mol],denaturant m value [kcal/mol/M],denaturant midpoint (higher = more stable) [M]
MMYSKLLTLTTLLLPTALALPSLVERACDYTCGSNCYSSSDVSTAQAAGYQLHEDGETVGSNSYPHKYNNYEGFDFSVSSPYYEWPILSSGDVYSGGSVGADRVVFNENNQLAGVITHTGASGNNFVECT [P99V],-2.01,2.7,1.66

# Source: FireProtDB (doi:10.1111/j.1432-1033.1996.00516.x)
